Biological target: HER-2 protein (human p185 HER-2 receptor) (human) (UniProt P04626)
Assay: flow cytometry on SKBR3 cells, control sample

## negative control sera (antibody)
  Mean Cell Fluorescence: 0.647
